Data published in patent publication US20260217843A1 (APOGEE THERAPEUTICS, published 2026).

How the values were obtained:
human FcRn = human FcRn (human, UniProt P55899 24-297; P61769 21-119); test: SPR (Biacore 8K+), antibody captured by anti-human kappa, human FcRn injected, pH 5.8; pH 5.8
Method: (§1) Briefly, a CM5 Series S sensor chip functionalized with anti-human kappa antibody was used to capture antibodies at 5 μg/mL. […] The chip was regenerated with 10 mM glycine pH 1.5 and 10 mM NaOH between runs.

cynomolgus FcRn = cynomolgus FcRn (cynomolgus, UniProt Q8SPV9 24-297; Q8SPW0 21-119); test: SPR (Biacore 8K+), antibody captured by anti-human kappa, cynomolgus FcRn injected, pH 5.8; pH 5.8
Method: as §1

[1] = target: T1, hOX40L added as soluble protein in cell assays (human, UniProt P23510 51-183, limits assumed); test: cell-based or functional assay
T1 sequence: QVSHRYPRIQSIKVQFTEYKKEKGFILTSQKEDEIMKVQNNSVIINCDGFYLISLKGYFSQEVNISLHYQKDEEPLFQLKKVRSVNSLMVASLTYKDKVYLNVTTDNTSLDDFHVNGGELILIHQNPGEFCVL

C1q = target: T2, C1q; test: SPR (Biacore 8K+), antibody captured by anti-human IgG Fc, C1q injected at 25 nM, mean response
T2 construct: also called Clq
Method: (§2) Briefly, a CM5 Series S sensor chip functionalized with anti-human IgG Fc antibody was used to capture antibodies at 5 μg/mL. […] The chip was regenerated with 10 mM glycine pH 1.5 and 10 mM NaOH between runs.

[2] = target: T3, hOX40L on hOX40L-expressing CHO cells (human, UniProt P23510 1-183); test: flow cytometry on hOX40L-expressing CHO cells, gMFI, nonlinear regression
T3 construct: also called cell surface OX40L
T3 sequence: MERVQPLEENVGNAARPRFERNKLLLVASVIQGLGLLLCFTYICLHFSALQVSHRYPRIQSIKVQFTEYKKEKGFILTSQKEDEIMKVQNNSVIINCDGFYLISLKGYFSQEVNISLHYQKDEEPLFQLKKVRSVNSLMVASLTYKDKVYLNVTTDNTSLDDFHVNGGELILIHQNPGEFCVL
Method: Nonlinear regression was performed on geometric mean fluorescence intensity (gMFI) values to determine EC50 values (FIG. 1, TABLE 8).

[3] = target: T4, Recombinant Human OX40L Protein, His Tag (Acro Cat. IL3-H52H4) (human, UniProt P23510 51-183); test: SPR (Biacore 8K), antibody captured, human OX40L injected, 1:1 fit
T4 construct: Bought His-tagged protein; also called hOX40L
T4 sequence: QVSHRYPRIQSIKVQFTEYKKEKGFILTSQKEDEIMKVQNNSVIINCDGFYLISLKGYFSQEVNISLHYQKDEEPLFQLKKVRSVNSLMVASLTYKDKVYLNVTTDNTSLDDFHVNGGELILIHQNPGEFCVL
Method: (§3) Samples were injected in a multi-cycle manner over freshly captured mAb, by regenerating the capture surfaces with injection of glycine pH 1.5 for 30 sec at a flow rate of 30 μL/min. The data was processed and analyzed with Biacore Insight Evaluation Software Version 2.0.15.12933 (GE Healthcare) as follows. […] The responses from the two buffer blank injections were then subtracted from the reference subtracted data (2-1) to yield double-referenced data, which were fit to an 1:1 binding model to determine the apparent association (ka) and dissociation rate constants (kd). Their ratio provided the apparent equilibrium dissociation constant or affinity constant (KD=kd/ka).

[4] = target: T5, Recombinant Cynomolgus OX40L Protein, His Tag (SINO BIOLOGICAL, Cat. 11057-C07H) (cynomolgus, UniProt G7NVH7 51-183); test: SPR (Biacore 8K), antibody captured, cynomolgus OX40L injected, 1:1 fit
T5 construct: Bought protein
T5 sequence: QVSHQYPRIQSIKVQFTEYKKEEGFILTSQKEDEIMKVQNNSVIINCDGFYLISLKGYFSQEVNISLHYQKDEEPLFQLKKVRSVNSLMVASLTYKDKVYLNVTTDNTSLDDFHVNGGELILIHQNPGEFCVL
Method: as §3

biotinylated hOX40L = target: T6, biotinylated hOX40L (human, UniProt P23510 51-183, limits assumed, biotinylated (sites not given)); test: blocking ELISA: biotinylated hOX40L preincubated with titrated antibody, added to coated hOX40-Fc, Extravidin-HRP
T6 construct: construct not described
T6 sequence: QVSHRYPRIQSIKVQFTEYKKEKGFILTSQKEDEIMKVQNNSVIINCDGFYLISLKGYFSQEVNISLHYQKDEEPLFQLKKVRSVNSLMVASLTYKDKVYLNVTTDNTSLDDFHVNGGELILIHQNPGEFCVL

[5] = target: T1, hOX40L added as soluble protein in cell …; test: cell-based or functional assay; remark: listed apart in the source
human CD32a 167H = target: T7, human CD32a 167H (human, UniProt P12318 36-218); test: SPR (Biacore 8K+), antibody captured by anti-human IgG Fc, receptor injected
T7 construct: numbering not explained
T7 sequence (looked up): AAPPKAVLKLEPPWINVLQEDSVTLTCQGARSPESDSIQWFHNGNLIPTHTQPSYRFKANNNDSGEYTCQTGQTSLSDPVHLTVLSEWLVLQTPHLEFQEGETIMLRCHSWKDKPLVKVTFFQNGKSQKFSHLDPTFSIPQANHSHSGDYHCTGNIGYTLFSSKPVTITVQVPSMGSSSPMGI
Method: as §2

human CD64 = human CD64 (human, UniProt P12314 16-288); test: as above
Method: as §2

human CD16a 176F = target: T8, human CD16a 176F (human, UniProt P08637 17-208); test: as above
T8 construct: numbering not explained
Method: as §2

human CD32a 167R = target: T9, human CD32a 167R (human, UniProt P12318 36-218); test: as above
T9 construct: numbering not explained
T9 sequence (looked up): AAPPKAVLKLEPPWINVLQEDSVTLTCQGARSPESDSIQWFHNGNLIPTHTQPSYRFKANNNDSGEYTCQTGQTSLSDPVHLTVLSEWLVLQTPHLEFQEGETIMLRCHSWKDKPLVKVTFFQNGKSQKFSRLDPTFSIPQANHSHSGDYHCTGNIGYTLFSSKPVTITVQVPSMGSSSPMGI
Method: as §2

human CD32b = target: T10, human CD32b (human, UniProt P31994 46-217); test: as above
T10 sequence (looked up): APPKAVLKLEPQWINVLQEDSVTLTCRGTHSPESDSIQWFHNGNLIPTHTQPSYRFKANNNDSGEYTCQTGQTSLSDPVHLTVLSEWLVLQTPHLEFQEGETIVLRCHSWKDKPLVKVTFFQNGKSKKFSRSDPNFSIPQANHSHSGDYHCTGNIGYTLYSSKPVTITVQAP
Method: as §2

human CD16b = human CD16b (human, UniProt O75015 17-200, limits assumed); test: as above
Method: as §2

human CD16a 176V = target: T11, human CD16a 176V (human, UniProt P08637 17-208); test: as above
T11 construct: Allelic variant named only as '176V'; numbering not explained
Method: as §2

T8 sequence (P08637 17-208 limits assumed): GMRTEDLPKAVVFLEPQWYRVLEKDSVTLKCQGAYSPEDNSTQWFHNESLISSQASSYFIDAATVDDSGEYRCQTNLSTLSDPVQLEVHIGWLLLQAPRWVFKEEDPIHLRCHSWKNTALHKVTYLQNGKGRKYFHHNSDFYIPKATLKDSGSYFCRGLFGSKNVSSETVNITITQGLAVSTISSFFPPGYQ
T2 sequence (P02745 23-245, chain 1 of 3): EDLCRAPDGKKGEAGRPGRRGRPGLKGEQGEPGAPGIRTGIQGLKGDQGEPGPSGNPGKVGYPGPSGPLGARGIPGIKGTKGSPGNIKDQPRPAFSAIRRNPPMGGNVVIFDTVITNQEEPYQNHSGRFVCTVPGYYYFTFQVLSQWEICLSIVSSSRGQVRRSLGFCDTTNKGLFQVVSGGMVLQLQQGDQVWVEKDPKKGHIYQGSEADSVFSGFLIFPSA
T2 sequence (P02746 28-253, chain 2 of 3, further chain): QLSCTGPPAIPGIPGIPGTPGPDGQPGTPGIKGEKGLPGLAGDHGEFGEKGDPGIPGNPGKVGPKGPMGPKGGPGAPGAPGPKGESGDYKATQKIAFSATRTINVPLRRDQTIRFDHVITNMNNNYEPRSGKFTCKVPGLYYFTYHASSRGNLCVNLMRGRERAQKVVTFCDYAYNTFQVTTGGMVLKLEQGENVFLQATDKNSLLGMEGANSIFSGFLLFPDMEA
T2 sequence (P02747 29-245, chain 3 of 3, further chain): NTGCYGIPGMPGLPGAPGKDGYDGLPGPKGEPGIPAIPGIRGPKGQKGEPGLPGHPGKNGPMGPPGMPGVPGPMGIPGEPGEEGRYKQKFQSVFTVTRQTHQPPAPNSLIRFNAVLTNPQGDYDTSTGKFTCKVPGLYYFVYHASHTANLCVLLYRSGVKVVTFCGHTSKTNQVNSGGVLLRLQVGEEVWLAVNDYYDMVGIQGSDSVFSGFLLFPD
human FcRn, sequence (P55899 24-297 limits assumed, form in doubt, chain 1 of 2): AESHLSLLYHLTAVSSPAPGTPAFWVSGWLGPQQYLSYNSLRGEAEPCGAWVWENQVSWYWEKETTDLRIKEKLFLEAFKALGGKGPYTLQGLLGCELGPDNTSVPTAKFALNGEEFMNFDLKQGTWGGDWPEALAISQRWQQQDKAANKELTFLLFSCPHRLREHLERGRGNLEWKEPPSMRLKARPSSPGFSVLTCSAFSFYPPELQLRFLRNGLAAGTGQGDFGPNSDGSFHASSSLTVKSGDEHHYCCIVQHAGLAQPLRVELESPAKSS
human FcRn, sequence (P61769 21-119 limits assumed, form in doubt, chain 2 of 2): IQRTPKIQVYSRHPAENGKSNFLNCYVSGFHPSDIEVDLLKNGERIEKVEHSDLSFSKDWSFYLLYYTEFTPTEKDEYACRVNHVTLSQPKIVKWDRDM
cynomolgus FcRn, sequence (Q8SPV9 24-297 limits assumed, chain 1 of 2): as the sequence (P55899 24-297 limits assumed, form in doubt, chain 1 of 2) above, with N39D, E44Q, G99S, S189G, S190N, L217M, S269T counted along it
cynomolgus FcRn, sequence (Q8SPW0 21-119 limits assumed, chain 2 of 2): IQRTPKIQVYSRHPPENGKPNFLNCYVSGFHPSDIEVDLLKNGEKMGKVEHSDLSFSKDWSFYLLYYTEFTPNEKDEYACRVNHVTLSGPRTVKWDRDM
T11 sequence (P08637 17-208 F176V limits assumed): as the sequence (P08637 17-208 limits assumed) above, with F160V counted along it
human CD64, sequence (P12314 16-288 limits assumed): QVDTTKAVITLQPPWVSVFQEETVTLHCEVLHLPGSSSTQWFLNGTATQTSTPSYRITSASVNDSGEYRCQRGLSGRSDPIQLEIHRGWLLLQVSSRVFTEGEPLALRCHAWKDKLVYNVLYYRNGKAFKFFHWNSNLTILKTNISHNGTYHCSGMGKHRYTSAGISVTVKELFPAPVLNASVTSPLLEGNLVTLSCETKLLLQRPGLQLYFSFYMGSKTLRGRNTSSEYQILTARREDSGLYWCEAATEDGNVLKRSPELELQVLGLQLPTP
human CD16b, sequence (O75015 17-200 limits assumed): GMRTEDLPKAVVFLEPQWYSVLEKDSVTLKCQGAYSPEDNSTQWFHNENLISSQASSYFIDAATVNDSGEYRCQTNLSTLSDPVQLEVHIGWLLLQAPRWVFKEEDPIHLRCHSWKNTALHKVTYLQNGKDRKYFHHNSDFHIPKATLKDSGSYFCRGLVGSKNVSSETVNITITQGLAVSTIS

Binder | Kd (human FcRn) [nM] | koff (human FcRn) [s⁻¹] | kon (human FcRn) [M⁻¹ s⁻¹] | Kd (cynomolgus FcRn) [nM] | koff (cynomolgus FcRn) [s⁻¹] | kon (cynomolgus FcRn) [M⁻¹ s⁻¹] | RU at 25 nM C1q (C1q) [RU] | Kd [3] [nM] | koff [3] [s⁻¹] | kon [3] [M⁻¹ s⁻¹] | Kd [4] [nM] | koff [4] [s⁻¹] | kon [4] [M⁻¹ s⁻¹] | IC50 (biotinylated hOX40L) [nM] | IC50, luminescence (RLU), hOX40 reporter cells with 50 ng/mL hOX40L [5] [nM] | binding result (human CD32a 167H) | binding result (human CD64) | binding result (human CD16a 176F) | binding result (human CD32a 167R) | binding result (human CD32b) | also measured
anti-hOX40L antibody clone 105 (antibody, human IgG1, kappa, L234A L235A) heavy: EVRLVESGGGLVQPGGSLRLSCAASGFTFSSYAMTWVRQAPGKGLEWVSLISGSGGLTKYADSVKGRFTISRDNSKKTLYLQMNSLRAEDTAVYYCAKDEGLTTGEYWGQGTLVTVSSASTKGPSVFPLAPSSKSTSGGTAALGCLVKDYFPEPVTVSWNSGALTSGVHTFPAVLQSSGLYSLSSVVTVPSSSLGTQTYICNVNHKPSNTKVDKKVEPKSCDKTHTCPPCPAPEAAGGPSVFLFPPKPKDTLYITREPEVTCVVVDVSHEDPEVKFNWYVDGVEVHNAKTKPREEQYNSTYRVVSVLTVLHQDWLNGKEYKCKVSNKALPAPIEKTISKAKGQPREPQVYTLPPSRDELTKNQVSLTCLVKGFYPSDIAVEWESNGQPENNYKTTPPVLDSDGSFFLYSKLTVDKSRWQQGNVFSCSVMHEALHNHYTQKSLSLSPG light: DIQMTQSPSSLSASVGDRVTITCRASQGIRNDLGWYQQKPGKAPKRLIYATSSFQSGVPSRFSGSGSGTEFTLTISSLQPEDFATYYCLQHNSYPFTFGPGTKVDVKRTVAAPSVFIFPPSDEQLKSGTASVVCLLNNFYPREAKVQWKVDNALQSGNSQESVTEQDSKDSTYSLSSTLTLSKADYEKHKVYACEVTHQGLSSPVTKSFNRGEC | 145 | 0.0442 | 306000 | 121 | 0.0453 | 374000 | -3.6 | 0.141 | 0.000125 | 886000 | 0.0494 | 8.09e-05 | 1.64e+06 | 1.41 | 0.852 | no binding (tested: 8 µM) | no binding (tested: 12.5 nM) | no binding (tested: 6 µM) | no binding (tested: 8 µM) | no binding (tested: 18 µM) | Donor 1 IC50, IL-2 release by pre-activated human CD4+ T cells with 20 ng/ml human OX40L [1]: 1.37 nM; Donor 2 IC50, IL-2 release by pre-activated human CD4+ T cells with 20 ng/ml human OX40L [1]: 1.33 nM; Donor 3 IC50, IL-2 release by pre-activated human CD4+ T cells with 20 ng/ml human OX40L [1]: 1 nM; EC50 [2]: 3.43 nM; binding result (human CD16b): no binding (tested: 10 µM); binding result (human CD16a 176V): no binding (tested: 6 µM)
anti-hOX40L antibody clone 114 (antibody, human IgG1, kappa, L234A L235A) heavy: EVQVVESGGGLVQPGGSLRLSCAASGFTFSNYAMTWVRQSPGKGLEWVSLISGSGGLTKYADSVKGRFTISRDNSKKTLFLQMNSLRAEDTAAYYCVKDEGLTTGEYWGQGTQVTVSSASTKGPSVFPLAPSSKSTSGGTAALGCLVKDYFPEPVTVSWNSGALTSGVHTFPAVLQSSGLYSLSSVVTVPSSSLGTQTYICNVNHKPSNTKVDKKVEPKSCDKTHTCPPCPAPEAAGGPSVFLFPPKPKDTLYITREPEVTCVVVDVSHEDPEVKFNWYVDGVEVHNAKTKPREEQYNSTYRVVSVLTVLHQDWLNGKEYKCKVSNKALPAPIEKTISKAKGQPREPQVYTLPPSRDELTKNQVSLTCLVKGFYPSDIAVEWESNGQPENNYKTTPPVLDSDGSFFLYSKLTVDKSRWQQGNVFSCSVMHEALHNHYTQKSLSLSPG light: not shown | 141 | 0.0471 | 333000 | 117 | 0.0445 | 381000 | -4.8 | 0.106 | 0.000114 | 1.07e+06 | 0.0336 | 7.73e-05 | 2.3e+06 | 1.12 | 0.732 | no binding (tested: 8 µM) | no binding (tested: 12.5 nM) | no binding (tested: 6 µM) | no binding (tested: 8 µM) | no binding (tested: 18 µM) | Donor 1 IC50, IL-2 release by pre-activated human CD4+ T cells with 20 ng/ml human OX40L [1]: 1.25 nM; Donor 2 IC50, IL-2 release by pre-activated human CD4+ T cells with 20 ng/ml human OX40L [1]: 1.19 nM; Donor 3 IC50, IL-2 release by pre-activated human CD4+ T cells with 20 ng/ml human OX40L [1]: 1.18 nM; EC50 [2]: 4.04 nM; binding result (human CD16b): no binding (tested: 10 µM); binding result (human CD16a 176V): no binding (tested: 6 µM)
anti-hOX40L antibody clone 231 (antibody, human IgG1, kappa, L234A L235A) heavy: QVQLVQSGTEVKKPGASVKVSCKASGYTFTNYDINWVRQATGQGLEWVGWIHPNTGKTGYAQKFQGRVTMTRDISIGTAYMELNSLRSEDTAVYYCARESYDLWSGHSFNWFDPWGQGTLVTVSSASTKGPSVFPLAPSSKSTSGGTAALGCLVKDYFPEPVTVSWNSGALTSGVHTFPAVLQSSGLYSLSSVVTVPSSSLGTQTYICNVNHKPSNTKVDKKVEPKSCDKTHTCPPCPAPEAAGGPSVFLFPPKPKDTLYITREPEVTCVVVDVSHEDPEVKFNWYVDGVEVHNAKTKPREEQYNSTYRVVSVLTVLHQDWLNGKEYKCKVSNKALPAPIEKTISKAKGQPREPQVYTLPPSRDELTKNQVSLTCLVKGFYPSDIAVEWESNGQPENNYKTTPPVLDSDGSFFLYSKLTVDKSRWQQGNVFSCSVMHEALHNHYTQKSLSLSPG light: DIQLTQSPSFLSASVGDRVIITCRASQGITSYLAWYQRKPGKAPKLLIYGATTLQSGVPSRFSGSGSGTEFTLTISSLQPEDFATYYCQQLQSYPYTFGQGTKLEIKRTVAAPSVFIFPPSDEQLKSGTASVVCLLNNFYPREAKVQWKVDNALQSGNSQESVTEQDSKDSTYSLSSTLTLSKADYEKHKVYACEVTHQGLSSPVTKSFNRGEC | 141 | 0.0462 | 328000 | 117 | 0.0465 | 398000 | 1.8 | 0.137 | 0.00013 | 943000 | 0.0714 | 0.000105 | 1.47e+06 | 28.5 | 0.909 | no binding (tested: 8 µM) | no binding (tested: 12.5 nM) | no binding (tested: 6 µM) | no binding (tested: 8 µM) | no binding (tested: 18 µM) | binding result (human CD16b): no binding (tested: 10 µM); binding result (human CD16a 176V): no binding (tested: 6 µM)
